B1: CPEB3 Ribozyme (parent)
chain: GGGGGCCACAGCAGAAGCGUUCACGUCGCGGCCCCUGUCAGAUUCUGGUGAAUCUGCGAAUUCUGCUGU

Variants of: B1
Test: self-cleavage, relative activity (ratio to wild type); higher = more cleavage; co-transcriptional

Variant | self-cleavage
G2U C34U | 0.103
G2U G17U | 0.039
G2U G17C | 0.0396
G3U C18U | 0.0757
G3U C18G | 0.0415
G3U C18A | 0.0631
G2C G47U | 0.0378
G2C G47A | 0.0652
G2U G65A | 0.0788
G2U G48C | 0.0769
G4A C29A | 0.226
G3C C39A | 0.0598
G3A U49C | 0.705
G4A C54U | 0.776
G4A C54A | 0.457
G2U A13G | 0.0748
G2C U20G | 0.0688
G3U G4U | 0.0247
G2C U69G | 0.0519
G2U G37C | 0.0385
G3C C35G | 0.0557
G3C C35A | 0.0343
G3A C18G | 0.0813
G3A C18A | 0.066

Variant | self-cleavage
G2U G30C | 0.0703
G2U G30A | 0.0872
G3A C35A | 0.102
G2C G50A | 0.0951
G2U A59G | 0.0714
G3U A59G | 0.0478
G3U U26A | 0.0295
G3A U64C | 0.436
G3A U64A | 0.458
G3A U64G | 0.521
G3U U53G | 0.0759
G3U G47A | 0.192
G3A A52C | 0.577
G3A A40U | 0.379
G3A A40C | 0.166
G2U G50A | 0.0766
G2U A40G | 0.0279
G3U C6A | 0.0458
G2U U61A | 0.0837
G2U U61G | 0.112
G2C C66G | 0.0186
G3U C35U | 0.0525
G2U G11C | 0.0923
G2C G68U | 0.0864

Variant | self-cleavage
G2C G48A | 0.0788
G3A U26C | 0.571
G2C G5C | 0.0267
G2C G5U | 0.0585
G3A U36C | 0.433
G3A U36A | 0.0867
G3A U36G | 0.206
G3U C45A | 0.105
G3U C45G | 0.112
G3C G56A | 0.0675
G3C G56C | 0.0668
G3U G28A | 0.0444
G3C U26A | 0.0495
G2C U21C | 0.0403
G3C U44C | 0.132
G3A C45A | 0.544
G3A C45G | 0.536
G3C C12G | 0.0121
G3U A52U | 0.142
G3U A52C | 0.0886
G3U A52G | 0.122
G2U U64G | 0.0605
G2U U64C | 0.0967
G3A G25C | 0.0661

Variant | self-cleavage
G3A G25A | 0.0615
G2C U36G | 0.052
G2C U36A | 0.0481
G2C U53A | 0.0158
G2C U53C | 0.0834
G3C U67C | 0.218
G2U A10G | 0.116
G2U A10U | 0.138
G3U U67G | 0.312
G3U U67C | 0.317
G3C A13G | 0.18
G2U U62A | 0.0777
G2U U62C | 0.108
G4A A13G | 0.88
G2C G17U | 0.0711
G3U U49G | 0.0811
G2U C35U | 0.0749
G2U C35G | 0.109
G3A C27U | 0.0889
G3A C27A | 0.153
G3A C27G | 0.056
G4A C12U | 0.876
G3A C33A | 0.193
G3C C34A | 0.465

Variant | self-cleavage
G3C C34U | 0.45
G4A C27G | 0.119
G4A C45G | 0.691
G3A C39G | 0.39
G3U G17A | 0.0459
G2U A51C | 0.102
G3U C12G | 0.0607
G3U C12U | 0.169
G3U A51G | 0.0734
G2U U46G | 0.0727
G3U U55A | 0.0915
G3U U55G | 0.0975
G4A C32U | 0.495
G4A C32G | 0.171
G2U A23G | 0.0867
G3U G19C | 0.0665
G3U C66A | 0.0783
G2U U20A | 0.0261
G3U U20C | 0.0468
G3U U20G | 0.0082
G2U A16C | 0.0327
G2U A16G | 0.0825
G2U C18A | 0.0495
G2U C18U | 0.0941

Variant | self-cleavage
G2U U55C | 0.0989
G2U U55G | 0.0565
G2C G25A | 0.0488
G4A A52G | 0.864
G4A A52C | 0.763
G2C U44G | 0.06
G2C U44A | 0.0552
G3C G5C | 0.0475
G3A G31U | 0.154
G3C G68U | 0.374
G2U U69C | 0.208
G2U U69A | 0.124
G3U A10G | 0.158
G3C A59U | 0.0529
G3C G58C | 0.0803
G4A A51G | 0.787
G4A A51C | 0.702
G2C G65A | 0.0284
G2C G65U | 0.102
G2C G30C | 0.072
G3C C9U | 0.441
G3U U61G | 0.114
G4A G14A | 0.401
G3A C6G | 0.0163

Variant | self-cleavage
G3A C6A | 0.0773
G3A C6U | 0.245
G2C G37C | 0.0304
G3U G31C | 0.0621
G2U C29U | 0.0589
G4A A10U | 0.941
G3A A8G | 0.527
G3A A8C | 0.721
G3U A42C | 0.0373
G3U A42U | 0.0748
G3U A42G | 0.11
G3C U38C | 0.0718
G3C U69A | 0.209
G4A C34G | 0.16
G4A A16C | 0.0992
G3C G65A | 0.117
G3A G65C | 0.338
G2U C66A | 0.073
G2U C66U | 0.096
G2C U62C | 0.011
G3A U46C | 0.597
G3A U46A | 0.67
G2U U21C | 0.0789
G4A G5U | 0.0889

Variant | self-cleavage
G2C G58A | 0.0591
G2C G41A | 0.0552
G3U C7G | 0.0286
G3U U38A | 0.22
G2C G3U | 0.0339
G3A U53A | 0.44
G3C U62A | 0.0658
G3C C33G | 0.0238
G3U G14A | 0.0323
G4A | 0.898
G3C C45G | 0.0888
G4A C35U | 0.244
G3C C66U | 0.127
G3A C34U | 0.91
G3A U67A | 0.778
G3A C63U | 0.627
G2U A15G | 0.0981
G3C U20C | 0
G3U C32G | 0.054
G3U C32A | 0.0393
G2C U55A | 0.0429
G2U U36G | 0.0492
G2U C63U | 0.117
G2U C63A | 0.127

Variant | self-cleavage
G2U C63G | 0.102
G3A U69C | 0.97
G3U G11A | 0.125
G3U G11U | 0.0744
G3A A51G | 0.584
G4A A23C | 0.573
G2U G47A | 0.0706
G3C U43C | 0.121
G3C G48A | 0.117
G3A C22U | 0.0997
G3U C57G | 0.0443
G3C A60U | 0.0697
G2U G14A | 0.0496
G2U A52G | 0.0867
G2U A52U | 0.0917
G3C G50C | 0.0988
G3C G50U | 0.133
G3U G68C | 0.548
G3U G68U | 0.546
G3C G30U | 0.0314
G3C A15U | 0.0699
G2C U43G | 0.0524
G2U C9U | 0.176
G3A A59C | 0.199

Variant | self-cleavage
G2U G41U | 0.0665
G2U G41C | 0.0505
G4A C66G | 0.799
G4A C33A | 0.897
G4A C33U | 0.968
G3U U46A | 0.162
G3A U20C | 0.0517
G3A U20G | 0.11
G3A G41C | 0.198
G2C G14U | 0.0531
G3C U53A | 0.0705
G3U U36A | 0.0376
G3A U61G | 0.278
G3C C29A | 0.0865
G3C C29U | 0.0376
G4A C39G | 0.717
G3U G58U | 0.189
G4A C6G | 0.07
G4A C6U | 0.426
G2U G28U | 0.0242
G2U G4A | 0.0959
G3A G14A | 0.329
G3A G14U | 0.29
G3C U61A | 0.0406

Variant | self-cleavage
G3C U61C | 0.0948
G3A A13C | 0.298
G2U C27A | 0.0514
G3C G31A | 0.0559
G3C G31U | 0.048
G4A C63G | 0.521
G4A C63A | 0.483
G3A U55A | 0.395
G2U U26C | 0.077
G2U U26A | 0.0542
G3U G65U | 0.101
G2C U38A | 0.0483
G3U A40C | 0.0469
G3C G19U | 0.0242
G3A G37C | 0.126
G3A A23U | 0.79
G3U U43G | 0.0687
G2U A60G | 0.0636
G2U G3U | 0.0485
G3A U38A | 0.514
G3A U38C | 0.419
G2U C32A | 0.107
G3C A23U | 0.28
G2U U49C | 0.0667

Variant | self-cleavage
G2U U49A | 0.0944
G2U U49G | 0.0431
G3A G47A | 0.65
G3U C9A | 0.655
G3U C9U | 0.521
G3C C27A | 0.0183
G3U G5U | 0.0488
G3C C63U | 0.171
G3C C63G | 0.0687
G3C U64G | 0.0913
G2U C54A | 0.0587
G3C C6A | 0.0513
G3C A10U | 0.334
G3U C29G | 0.0557
G3U C29A | 0.0168
G3A A16G | 0.315
G2C G19A | 0.0455
G2U U38A | 0.0631
G2U U38C | 0.095
G3A G5C | 0.123
G3C U46G | 0.068
G3A C9U | 0.886
G3U G48U | 0.135
G3U G48C | 0.151

Variant | self-cleavage
G4A A42U | 0.721
G3A A60G | 0.32
G3A A60C | 0.152
G3U A23C | 0.135
G3U A23U | 0.344
G3C A42G | 0.106
G3A G58A | 0.315
G3A G58C | 0.338
G3C A51U | 0.115
G3A G48C | 0.698
G4A C7G | 0.0338
G3U C27A | 0.0666
G3A G56C | 0.253
G3C C24A | 0.0571
G3A C7A | 0.0813
G3A C7G | 0.112
G4A A40U | 0.48
G4A A40G | 0.773
G3U G25U | 0.0356
G3U G25A | 0.046
G2U G31A | 0.0769
G3U C63G | 0.1
G3U C63A | 0.0888
G3U U62C | 0.0865

Variant | self-cleavage
G3U G50U | 0.171
G3U G50A | 0.172
G3C G28U | 0.0508
G3U C34G | 0.643
G3C U49A | 0.168
G3A U43G | 0.422
G3A U43C | 0.41
G3A U43A | 0.356
G3A G50U | 0.582
G3A G50C | 0.595
G4A C22A | 0.087
G2U G5A | 0.0678
G2U G5C | 0.0693
G3C C32G | 0.0514
G3C C32U | 0.0592
G2U C57U | 0.0179
G3C G41C | 0.0352
G3U C33G | 0.0603
G3C C54A | 0.0635
G3C C54U | 0.125
G3A G30U | 0.107
G3U G56A | 0.035
